PMC2841689

Biological target: N74D HIV-1 CA-NC complexes (HIV-1)
Test: co-sedimentation

Q: For “human CPSF6-358 (C-terminally truncated CPSF6), HA-tagged (from UniProt Q16630-2 1-358) (domain or fragment)”, which fold difference in co-purification, wild-type over N74D CA-NC is on record?
A: 3.9 fold

Q: Which fold more precipitated than by wild-type CA-NC complexes does the source give for “rhesus TRIM5alpha, HA-tagged (from UniProt Q0PF16 1-497) (natural protein)” here?
A: 2 fold
